In patent US20250339531A1, “DUX4 POLYPEPTIDES AND NUCLEIC ACIDS FOR TREATING INFLAMMATORY AND AUTOIMMUNE CONDITIONS” (Fred Hutchinson Cancer Center, priority 2021, published 2025):

Tested on: proteins that co-immunoprecipitated with DUX4-CTD constructs expressed in MB135 myoblasts
Test: LC-MS of proteins co-immunoprecipitated with DUX4-CTD (Table 1) and western validation
Assay type: binding, human
Set-up: key to 4. mL1dL2 + Dox + IFNG / 4. + IFNG mix / 4. longCTD + Dox + IFNG / 3. + IFNg + Dox longCTD / 3. + Dox longCTD / 3. + IFNG longCTD: peptide-spectrum matches (PSMs) per protein
Settings: for 4. longCTD + Dox + IFNG: LC-MS counts of the listed protein co-immunoprecipitated with DUX4-CTD bait longCTD, experiment 4, Dox + IFNG; for 3. + IFNg + Dox longCTD / 3. + Dox longCTD / 3. + IFNG longCTD: bait longCTD; for 3. + IFNg + Dox longCTD: experiment 3, IFNg + Dox; for SUM of PSMS: sum over all samples; for 3. + Dox longCTD: experiment 3, Dox only; for 3. + IFNG longCTD: experiment 3, IFNG only, no doxycycline (bait at background level)
Outline: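 Two independent experiments compared uninduced, doxycycline and doxycycline+IFNG MB135iDUX4-CTD (plus MB135iDUX4mL1dL2) myoblasts. Anti-FLAG pulldowns (3 h, 4 °C) were eluted in LDS buffer for western validation or with FLAG peptide for trypsin digestion and Orbitrap LC-MS; hits needed ≥2 PSMs in both experiments, ranked by total PSMs.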

| Molecule | 4. longCTD + Dox + IFNG | 3. + IFNg + Dox longCTD | SUM of PSMS | 3. + Dox longCTD | 3. + IFNG longCTD |
| --- | --- | --- | --- | --- | --- |
| Q14247 (protein, UniProt Q14247 1-550, looked up, full-length) MWKASAGHAVSIAQDDAGADDWETDPDFVNDVSEKEQRWGAKTVQGSGHQEHINIHKLRENVFQEHQTLKEKELETGPKASHGYGGKFGVEQDRMDKSAVGHEYQSKLSKHCSQVDSVRGFGGKFGVQMDRVDQSAVGFEYQGKTEKHASQKDYSSGFGGKYGVQADRVDKSAVGFDYQGKTEKHESQRDYSKGFGGKYGIDKDKVDKSAVGFEYQGKTEKHESQKDYVKGFGGKFGVQTDRQDKCALGWDHQEKLQLHESQKDYKTGFGGKFGVQSERQDSAAVGFDYKEKLAKHESQQDYSKGFGGKYGVQKDRMDKNASTFEDVTQVSSAYQKTVPVEAVTSKTSNIRANFENLAKEKEQEDRRKAEAERAQRMAKERQEQEEARRKLEEQARAKTQTPPVSPAPQPTEERLPSSPVYEDAASFKAELSYRGPVSGTEPEPVYSMEAADYREASSQQGLAYATEAVYESAEAPGHYPAEDSTYDEYENDLGITAVALYDYQAAGDDEISFDPDDIITNIEMIDDGWWRGVCKGRYGLFPANYVELRQ | 5 | 1 | 6 |  |  |
| O75083 (protein, UniProt O75083 1-606, looked up, full-length) MPYEIKKVFASLPQVERGVSKIIGGDPKGNNFLYTNGKCVILRNIDNPALADIYTEHAHQVVVAKYAPSGFYIASGDVSGKLRIWDTTQKEHLLKYEYQPFAGKIKDIAWTEDSKRIAVVGEGREKFGAVFLWDSGSSVGEITGHNKVINSVDIKQSRPYRLATGSDDNCAAFFEGPPFKFKFTIGDHSRFVNCVRFSPDGNRFATASADGQIYIYDGKTGEKVCALGGSKAHDGGIYAISWSPDSTHLLSASGDKTSKIWDVSVNSVVSTFPMGSTVLDQQLGCLWQKDHLLSVSLSGYINYLDRNNPSKPLHVIKGHSKSIQCLTVHKNGGKSYIYSGSHDGHINYWDSETGENDSFAGKGHTNQVSRMTVDESGQLISCSMDDTVRYTSLMLRDYSGQGVVKLDVQPKCVAVGPGGYAVVVCIGQIVLLKDQRKCFSIDNPGYEPEVVAVHPGGDTVAIGGVDGNVRLYSILGTTLKDEGKLLEAKGPVTDVAYSHDGAFLAVCDASKVVTVFSVADGYSENNVFYGHHAKIVCLAWSPDNEHFASGGMDMMVYVWTLSDPETRVKIQDAHRLHHVSSLAWLDEHTLVTTSHDASVKEWTITY | 11 | 2 | 16 | 1 |  |
| P07437 (protein, UniProt P07437 1-444, looked up, full-length) MREIVHIQAGQCGNQIGAKFWEVISDEHGIDPTGTYHGDSDLQLDRISVYYNEATGGKYVPRAILVDLEPGTMDSVRSGPFGQIFRPDNFVFGQSGAGNNWAKGHYTEGAELVDSVLDVVRKEAESCDCLQGFQLTHSLGGGTGSGMGTLLISKIREEYPDRIMNTFSVVPSPKVSDTVVEPYNATLSVHQLVENTDETYCIDNEALYDICFRTLKLTTPTYGDLNHLVSATMSGVTTCLRFPGQLNADLRKLAVNMVPFPRLHFFMPGFAPLTSRGSQQYRALTVPELTQQVFDAKNMMAACDPRHGRYLTVAAVFRGRMSMKEVDEQMLNVQNKNSSYFVEWIPNNVKTAVCDIPPRGLKMAVTFIGNSTAIQELFKRISEQFTAMFRRKAFLHWYTGEGMDEMEFTEAESNMNDLVSEYQQYQDATAEEEEDFGEEAEEEA | 110 | 75 | 315 | 41 | 14 |
| Q16643 (protein, UniProt Q16643 1-649, looked up, full-length) MAGVSFSGHRLELLAAYEEVIREESAADWALYTYEDGSDDLKLAASGEGGLQELSGHFENQKVMYGFCSVKDSQAALPKYVLINWVGEDVPDARKCACASHVAKVAEFFQGVDVIVNASSVEDIDAGAIGQRLSNGLARLSSPVLHRLRLREDENAEPVGTTYQKTDAAVEMKRINREQFWEQAKKEEELRKEEERKKALDERLRFEQERMEQERQEQEERERRYREREQQIEEHRRKQQTLEAEEAKRRLKEQSIFGDHRDEEEETHMKKSESEVEEAAAIIAQRPDNPREFFKQQERVASASAGSCDVPSPFNHRPGSHLDSHRRMAPTPIPTRSPSDSSTASTPVAEQIERALDEVTSSQPPPLPPPPPPAQETQEPSPILDSEETRAAAPQAWAGPMEEPPQAQAPPRGPGSPAEDLMFMESAEQAVLAAPVEPATADATEIHDAADTIETDTATADTTVANNVPPAATSLIDLWPGNGEGASTLQGEPRAPTPPSGTEVTLAEVPLLDEVAPEPLLPAGEGCATLLNFDELPEPPATFCDPEEVEGESLAAPQTPTLPSALEELEQEQEPEPHLLTNGETTQKEGTQASEGYFSQSQEEEFAQSEELCAKAPPPVFYNKPPEIDITCWDADPVPEEEEGFEGGD | 33 | 13 | 51 | 3 |  |
| P02545 (protein, UniProt P02545 1-664, looked up, full-length) METPSQRRATRSGAQASSTPLSPTRITRLQEKEDLQELNDRLAVYIDRVRSLETENAGLRLRITESEEVVSREVSGIKAAYEAELGDARKTLDSVAKERARLQLELSKVREEFKELKARNTKKEGDLIAAQARLKDLEALLNSKEAALSTALSEKRTLEGELHDLRGQVAKLEAALGEAKKQLQDEMLRRVDAENRLQTMKEELDFQKNIYSEELRETKRRHETRLVEIDNGKQREFESRLADALQELRAQHEDQVEQYKKELEKTYSAKLDNARQSAERNSNLVGAAHEELQQSRIRIDSLSAQLSQLQKQLAAKEAKLRDLEDSLARERDTSRRLLAEKEREMAEMRARMQQQLDEYQELLDIKLALDMEIHAYRKLLEGEEERLRLSPSPTSQRSRGRASSHSSQTQGGGSVTKKRKLESTESRSSFSQHARTSGRVAVEEVDEEGKFVRLRNKSNEDQSMGNWQIKRQNGDDPLLTYRFPPKFTLKAGQVVTIWAAGAGATHSPPTDLVWKAQNTWGCGNSLRTALINSTGEEVAMRKLVRSVTVVEDDEDEDGDDLLHHHHGSHCSSSGDPAEYNLRSRTVLCGTCGQPADKASASGSGAQVGGPISSGSSASSVTVTRSYRSVGGSGGGSFGDNLVTRSYLLGNSSPRTQSPQNCSIM | 6 | 3 | 21 |  |  |
| Q9BUF5 (protein, UniProt Q9BUF5 1-446, looked up, full-length) MREIVHIQAGQCGNQIGTKFWEVISDEHGIDPAGGYVGDSALQLERINVYYNESSSQKYVPRAALVDLEPGTMDSVRSGPFGQLFRPDNFIFGQTGAGNNWAKGHYTEGAELVDAVLDVVRKECEHCDCLQGFQLTHSLGGGTGSGMGTLLISKIREEFPDRIMNTFSVMPSPKVSDTVVEPYNATLSVHQLVENTDETYCIDNEALYDICFRTLKLTTPTYGDLNHLVSATMSGVTTSLRFPGQLNADLRKLAVNMVPFPRLHFFMPGFAPLTSRGSQQYRALTVPELTQQMFDARNMMAACDPRHGRYLTVATVFRGPMSMKEVDEQMLAIQSKNSSYFVEWIPNNVKVAVCDIPPRGLKMASTFIGNSTAIQELFKRISEQFSAMFRRKAFLHWFTGEGMDEMEFTEAESNMNDLVSEYQQYQDATANDGEEAFEDEEEEIDG | 46 | 39 | 128 | 20 |  |
| Q6NZI2 (protein, UniProt Q6NZI2 1-390, looked up, full-length) MEDPTLYIVERPLPGYPDAEAPEPSSAGAQAAEEPSGAGSEELIKSDQVNGVLVLSLLDKIIGAVDQIQLTQAQLEERQAEMEGAVQSIQGELSKLGKAHATTSNTVSKLLEKVRKVSVNVKTVRGSLERQAGQIKKLEVNEAELLRRRNFKVMIYQDEVKLPAKLSISKSLKESEALPEKEGEELGEGERPEEDAAALELSSDEAVEVEEVIEESRAERIKRSGLRRVDDFKKAFSKEKMEKTKVRTRENLEKTRLKTKENLEKTRHTLEKRMNKLGTRLVPAERREKLKTSRDKLRKSFTPDHVVYARSKTAVYKVPPFTFHVKKIREGQVEVLKATEMVEVGADDDEGGAERGEAGDLRRGSSPDVHALLEITEESDAVLVDKSDSD | 16 | 3 | 42 |  |  |
| Q13885 (protein, UniProt Q13885 1-445, looked up, full-length) MREIVHIQAGQCGNQIGAKFWEVISDEHGIDPTGSYHGDSDLQLERINVYYNEAAGNKYVPRAILVDLEPGTMDSVRSGPFGQIFRPDNFVFGQSGAGNNWAKGHYTEGAELVDSVLDVVRKESESCDCLQGFQLTHSLGGGTGSGMGTLLISKIREEYPDRIMNTFSVMPSPKVSDTVVEPYNATLSVHQLVENTDETYSIDNEALYDICFRTLKLTTPTYGDLNHLVSATMSGVTTCLRFPGQLNADLRKLAVNMVPFPRLHFFMPGFAPLTSRGSQQYRALTVPELTQQMFDSKNMMAACDPRHGRYLTVAAIFRGRMSMKEVDEQMLNVQNKNSSYFVEWIPNNVKTAVCDIPPRGLKMSATFIGNSTAIQELFKRISEQFTAMFRRKAFLHWYTGEGMDEMEFTEAESNMNDLVSEYQQYQDATADEQGEFEEEEGEDEA | 99 | 61 | 208 | 35 | 13 |
| Q13409 (protein, UniProt Q13409 1-638, looked up, full-length) MSDKSELKAELERKKQRLAQIREEKKRKEEERKKKETDQKKEAVAPVQEESDLEKKRREAEALLQSMGLTPESPIVFSEYWVPPPMSPSSKSVSTPSEAGSQDSGDGAVGSRTLHWDTDPSVLQLHSDSDLGRGPIKLGMAKITQVDFPPREIVTYTKETQTPVMAQPKEDEEEDDDVVAPKPPIEPEEEKTLKKDEENDSKAPPHELTEEEKQQILHSEEFLSFFDHSTRIVERALSEQINIFFDYSGRDLEDKEGEIQAGAKLSLNRQFFDERWSKHRVVSCLDWSSQYPELLVASYNNNEDAPHEPDGVALVWNMKYKKTTPEYVFHCQSAVMSATFAKFHPNLVVGGTYSGQIVLWDNRSNKRTPVQRTPLSAAAHTHPVYCVNVVGTQNAHNLISISTDGKICSWSLDMLSHPQDSMELVHKQSKAVAVTSMSFPVGDVNNFVVGSEEGSVYTACRHGSKAGISEMFEGHQGPITGIHCHAAVGAVDFSHLFVTSSFDWTVKLWTTKNNKPLYSFEDNADYVYDVMWSPTHPALFACVDGMGRLDLWNLNNDTEVPTASISVEGNPALNRVRWTHSGREIAVGDSEGQIVIYDVGEQIAVPRNDEWARFGRTLAEINANRADAEEEAATRIPA | 4 | 1 | 5 |  |  |
